Patent US20180208675A1 (Novo Nordisk, published 2018)

Columns and labels:
[1] = molecular target: T1, human TFPI alpha (full-length TFPIα) (human, UniProt P10646 29-304); test: cell-based or functional assay
[2] = molecular target: endogenous TFPI of normal human plasma (human, UniProt P10646 29-304, limits assumed); test: cell-based or functional assay
[3] = molecular target: T1, human TFPI alpha (full-length TFPIα); test: SPR (Biacore T200), Fab captured on Human Fab Binder, TFPIα in solution, 1:1 fit
Text: Binding interaction analysis was obtained by Surface Plasmon Resonance in a Biacore T200 instrument. Human Fab Binder (Human Fab Capture Kit, GE Healthcare) was immobilized to a series S CM4 sensor chip (GE Healthcare) in flow-cells 1-4 at 10000 response units (RU) using the amine coupling protocol available within the Biacore T-200 control software (GE Healthcare) and the reagents provided with the Amine Coupling Kit (GE Healthcare).The relevant Fab fragment or Fab-Fab conjugate was captured in flow-cell 2, 3 or 4 at a fixed concentration. Different concentrations of TFPI were tested by diluting TFPI in the running buffer (10 mM Hepes, pH 7.4, 300 mM NaCl, 5 mM CaCl₂, 0.05% Surfactant P20, 1 mg/ml BSA). Each sample was assayed using 300 seconds of contact time followed by 600 seconds of dissociation time at 50 μl/min flow rate. A buffer blank was also assayed. The sensor surface was regenerated with 10 mM Glycine pH 2.1 with two cycles each of 30 seconds at 50 μl/min flow rate.
Biacore T200 Evaluation software was used to analyse the data. Determination of binding constants (kₒₙ, koff, KD) was obtained assuming a 1:1 interaction of TFPI and the Fab variant or Fab-Fab conjugate of interest.

[4] = molecular target: T1, human TFPI alpha (full-length TFPIα); test: cell-based or functional assay; remark: listed apart in the source

| Binder | thrombin peak (nM) at 6.25 nM, FVIII-neutralised plasma + 2 nM TFPIα [1] [nM] | thrombin peak (nM) at 12.5 nM, FVIII-neutralised plasma + 2 nM TFPIα [1] [nM] | thrombin peak (nM) at 25.0 nM, FVIII-neutralised plasma + 2 nM TFPIα [1] [nM] | thrombin peak (nM) at 50.0 nM, FVIII-neutralised plasma + 2 nM TFPIα [1] [nM] | thrombin peak (nM) at 100 nM, FVIII-neutralised plasma + 2 nM TFPIα [1] [nM] | thrombin peak (nM) at 6.25 nM, FVIII-neutralised plasma, endogenous TFPI [2] [nM] | thrombin peak (nM) at 12.5 nM, FVIII-neutralised plasma, endogenous TFPI [2] [nM] | thrombin peak (nM) at 25.0 nM, FVIII-neutralised plasma, endogenous TFPI [2] [nM] | thrombin peak (nM) at 50.0 nM, FVIII-neutralised plasma, endogenous TFPI [2] [nM] | thrombin peak (nM) at 100 nM, FVIII-neutralised plasma, endogenous TFPI [2] [nM] | Kd [3] [nM] | koff [3] [s⁻¹] | kon [3] [M⁻¹ s⁻¹] | lag time (min), 200 nM mAb (2 x 100 nM), FVIII-neutralised plasma + 20 nM TFPIα [4] [min] | thrombin peak (nM), 200 nM mAb (2 x 100 nM), FVIII-neutralised plasma + 20 nM TFPIα [4] [nM] | ttPeak (min), 200 nM mAb (2 x 100 nM), FVIII-neutralised plasma + 20 nM TFPIα [4] [min] |
| --- | --- | --- | --- | --- | --- | --- | --- | --- | --- | --- | --- | --- | --- | --- | --- | --- |
| mAb 2021 (antibody, human IgG4 S228P, kappa, V domains shown) VH: EVQLVESGGGLVKPGGSLRLSCAASGFTFSNYAMSWVRQTPEKRLEWVATISRSGSYSYFPDSVQGRFTISRDNAKNSLYLQMNSLRAEDTAVYYCARLGGYDEGDAMDSWGQGTTVTVSS VL: DIVMTQTPLSLSVTPGQPASISCKSSQSLLESDGKTYLNWYLQKPGQSPQLLIYLVSILDSGVPDRFSGSGSGTDFTLKISRVEAEDVGVYYCLQATHFPQTFGGGTKVEIKR | 48.9 | 61.7 | 68.4 | 73.4 | 58.6 | 113 | 114 | 116 | 118 | 118 | – | – | – | – | – | – |
| Fab 0094 (Fab fragment of mAb 2007) (Fab, V domains shown, KPI-2 specific) VH: EVQLVESGGGLVKPGGSLRLSCAASGFTFSNYAMSWVRQAPGKGLEWVSTISRSGSYSYYPDSVKGRFTISRDNAKNSLYLQMNSLRAEDTAVYYCARLGGYDEGDAMDSWGQGTTVTVSS VL: DIVMTQTPLSLSVTPGQPASISCKSSQSLLESDGKTYLNWYLQKPGQSPQLLIYLVSILDSGVPDRFSGSGSGTDFTLKISRVEAEDVGVYYCLQATHFPQTFGGGTKVEIKR | 5.9 | 10.6 | 14.3 | 18.9 | 20.3 | 35.9 | 45 | 60.2 | 73.9 | 74.1 | 4.4 | 0.00066 | 150000 | – | – | – |
| Fab 0088 (Fab fragment of mAb 2021) (Fab, V domains shown, free C-terminal cysteine; KPI-2 specific) VH: EVQLVESGGGLVKPGGSLRLSCAASGFTFSNYAMSWVRQTPEKRLEWVATISRSGSYSYFPDSVQGRFTISRDNAKNSLYLQMNSLRAEDTAVYYCARLGGYDEGDAMDSWGQGTTVTVSS VL: DIVMTQTPLSLSVTPGQPASISCKSSQSLLESDGKTYLNWYLQKPGQSPQLLIYLVSILDSGVPDRFSGSGSGTDFTLKISRVEAEDVGVYYCLQATHFPQTFGGGTKVEIKR | 38.4 | 64.2 | 69.8 | 67.7 | 48.1 | 96.8 | 98.1 | 102 | 101 | 87.7 | 0.06 | 0.0001 | 1.7e+06 | – | – | – |
| Fab 0095 (Fab fragment of mAb 2014) (Fab, V domains shown, KPI-2 specific) VH: EVQLVESGGGLVKPGGSLRLSCAASGFTFSNYAMSWVRQAPGKGLEWVSTISRSGSYSYYADSVKGRFTISRDNAKNSLYLQMNSLRAEDTAVYYCARLGGYDEGDAMDSWGQGTTVTVSS VL: DIVMTQTPLSLSVTPGQPASISCKSSQSLLESDGKTYLNWLLQRPGESPKLLIYLVSILDSGVPDRFSGSGSGTDFTLKISRVEAEDVGVYYCLQATHFPQTFGGGTKVEIKR | 13.3 | 19.4 | 22.4 | 25.1 | 24.6 | 74.2 | 81.3 | 84.9 | 85.4 | 84.7 | 0.78 | 0.003 | 3.9e+06 | – | – | – |
| Fab 0313 (Fab fragment of mAb 2000) (Fab, V domains shown, Fab of the initial grafted HzTFPI4F36; KPI-2 specific) VH: EVQLVESGGGLVKPGGSLRLSCAASGFTFSNYAMSWVRQAPGKGLEWVSTISRSGSYSYYADSVKGRFTISRDNAKNSLYLQMNSLRAEDTAVYYCARLGGYDEGDAMDSWGQGTTVTVSS VL: DIVMTQTPLSLSVTPGQPASISCKSSQSLLESDGKTYLNWYLQKPGQSPQLLIYLVSILDSGVPDRFSGSGSGTDFTLKISRVEAEDVGVYYCLQATHFPQTFGGGTKVEIKR | – | – | – | – | – | – | – | – | – | – | 42 | 0.0021 | 49000 | – | – | – |
| mAb 1F91 (antibody, V domains shown) VH: DVQLQESGPGLVKPSQSLSLTCTVSGYSITSDYAWNWIRQFPGNKLEWMGYISYSGSTSYNPSLKSRISITRDTSKNQFFLQLNSVTTEDTATYYCARWAYDGPWGQGTLVTVSA VL: QIVLSQSPALLSASPGEKVTMTCRASSSVSHMHWYQQKPGSSPKPWIYATSNLASGVPARFSGSGSGTSYSLTITRVEAEDAATYYCQQWSSNPFTFGSGTKLEIKR | – | – | – | – | – | – | – | – | – | – | – | – | – | 0 | 0 | 0 |
| mAb 4F110 (antibody, human IgG4 S228P, kappa, V domains shown) VH: QVQLQQSGAELVKPGASVKLSCKASGYTFISYYMYWVKQRPGQGLEWIGEINPSNGDTNLNEKFKSKATLTVDKSSSTVYMQLSSLTSEDSAVYYCTRWDRFDGFVYWGQGTLVTVSA VL: ETTVTQSPASLSMAIGGKVTIRCIISTNIDDDINWYQQKPGEPPKLLISEGNTLRPGVPSRFSSSGYGTDFVFTIENMLSEDVADYYCLQSDDLPYTFGGGTKLEIKR | – | – | – | – | – | – | – | – | – | – | – | – | – | 0 | 0 | 0 |
| Fab 0089 (Fab fragment of mAb 4F110) (Fab, V domains shown, Chimeric mouse/human Fab; HC truncated after the hinge cysteine; KPI-3 specific) VH: QVQLQQSGAELVKPGASVKLSCKASGYTFISYYMYWVKQRPGQGLEWIGEINPSNGDTNLNEKFKSKATLTVDKSSSTVYMQLSSLTSEDSAVYYCTRWDRFDGFVYWGQGTLVTVSA VL: ETTVTQSPASLSMAIGGKVTIRCIISTNIDDDINWYQQKPGEPPKLLISEGNTLRPGVPSRFSSSGYGTDFVFTIENMLSEDVADYYCLQSDDLPYTFGGGTKLEIKR | – | – | – | – | – | – | – | – | – | – | 0.11 | 0.00057 | 5e+06 | – | – | – |
| mAb 2F35 (antibody, V domains shown) VH: EVQLQQSGAELVRPGALVKLSCKASGFNIKDYYIHWVKQRPEQGLEWIGWIDPENGNTIFDPKFQGRASITADTSSNTAYLQLSSLTSEDTAVYYCAGRWYAMDYWGQGTSVTVSS VL: not shown | – | – | – | – | – | – | – | – | – | – | – | – | – | 0 | 0 | 0 |
| mAb 2F3 (antibody, V domains shown) VH: QVQLKQSGPGLVQPSQSLSITCTVSGFSLSSYGVHWVRQSPGKGLEWLGVIWRGGSTDFNAAFMSRVSFTKDNSKSQVFFKMNSLQADDTAIYYCAKNSHGNYVGYAMDYWGQGTSVTVSS VL: DIVMTQSQKFMSTTVGDKVSIPCKASENVGAAVAWYQQKPGQSPTLLIYSASNRYTGIPDRFTGSGSGTDFTLTIRTVQSEDLADYFCQQYTNYPTFGGGTKLEIKR | – | – | – | – | – | – | – | – | – | – | – | – | – | 5.8 | 20.9 | 14.6 |
| mAb 2F45 (antibody, V domains shown) VH: QVQLKQSGPGLVQPSQSLSISCTVSGFSLTGYGVHWIRQSPGKGLEWLGVIWRGGSIDYNAAFMSRLSITKDNSKSQVFFKMNSLQADDTAIYYCAKNSHGNYVGYAMDYWGQGTSVTVSS VL: DIVMTQSQKFMSTTVGDRVSITCKASQNVGTAVAWYQQKPGQSPELLIYSASNRYTRVPDRFTGSGSGTDFTLTISNMQSEDLADYFCQQYTSYPTFGGGTKLEIKR | – | – | – | – | – | – | – | – | – | – | – | – | – | 9 | – | – |
| mAb 2F22 (antibody, V domains shown) VH: QVQLKQSGPGLVQPSQSLSITCTVSGFSLTNYGVHWVRQSPGKGLEWLAVIWRGGSIDYNAAFMSRLSITKDNSKSQVFFKMNSLQADDTAIYYCAKNSHGNYVGYAMDYWGQGTSVTVSS VL: GIVMTQSQKFMSTTVGDRVSITCKASQSVGPAVAWYQQKPGQSPKLLIYSASNRYTGVPDRFTGSGSGADFTLTISNLHSEDLADYFCQQYTSYPTFGGGTKLEIKR | – | – | – | – | – | – | – | – | – | – | – | – | – | 5.1 | 23.7 | 13.6 |
